# Data: PMC11952658
# Tests used:
# [1] = molecular target: N-terminal tagged Halo635 LIG3α (DNA Ligase 3α, nuclear, wild type); experiment: single-molecule fluorescence colocalisation on tethered DNA (SMADNE, LUMICKS C-trap); as a1 but on calf-intestinal alkaline phosphatase (CIP) treated nicked λ DNA with 8 observable non-ligatable (5'OH) nick sites, 10 pN tension
# [2] = molecular target: N-terminal tagged Halo635 LIG3α (DNA Ligase 3α, nuclear, wild type); experiment: single-molecule fluorescence colocalisation on tethered DNA (SMADNE, LUMICKS C-trap); nuclear extract diluted 1:10 in 20mM HEPES pH 7.5, 150mM NaCl, 1mM DTT, 5% glycerol, 0.5mg/ml BSA, 1mM trolox; nicked λ DNA with eight observable ligatable nicks tethered between streptavidin beads, 10 pN tension; kymographs at 10 frames per second; proteins at 0.1–2 nM
# [3] = molecular target: Halo 635-K421A LIG3α (catalytically dead); experiment: as above
# Halo 635-ΔZnF LIG3α = experiment: as above
# [4] = molecular target: Cy3-labeled human histone nucleosome core particle reconstituted on the Widom 601 sequence (human); experiment: single-molecule fluorescence imaging on a tethered nucleosome (SMADNE, LUMICKS C-trap); Cy3-labeled undamaged 601 NCP ligated into 6 kb biotinylated DNA handles and tethered between optically trapped streptavidin beads, 4–5 pN tension; tagged proteins from nuclear extract; lifetimes from …; KD from koff, apparent kon and protein concentration
# [5] = system: T1, LIG3α ZnF-BRCT internal_change, P49916-3; experiment: single-molecule (SMADNE, optical tweezers); conditions: 20 mM HEPES pH 7.5, 150 mM NaCl, 1 mM DTT, 5% glycerol, 0.5 mg/ml BSA, 1 mM trolox, 25 °C, nuclear extract diluted 1:10, 10 pN (λ DNA) or 4-5 pN (NCP)
# T1 sequence: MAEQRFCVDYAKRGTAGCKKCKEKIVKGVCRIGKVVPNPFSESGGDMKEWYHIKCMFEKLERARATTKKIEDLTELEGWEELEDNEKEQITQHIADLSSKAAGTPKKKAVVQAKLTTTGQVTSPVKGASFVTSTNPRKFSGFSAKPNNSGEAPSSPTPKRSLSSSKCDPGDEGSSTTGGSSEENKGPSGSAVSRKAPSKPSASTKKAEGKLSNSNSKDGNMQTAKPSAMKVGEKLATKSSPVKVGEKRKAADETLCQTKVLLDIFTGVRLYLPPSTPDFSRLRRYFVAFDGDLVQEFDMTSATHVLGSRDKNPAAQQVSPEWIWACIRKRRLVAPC
# [6] = system: T2, LIG3α WT (nuclear), P49916-3; experiment: single-molecule (SMADNE, optical tweezers); conditions: 20 mM HEPES pH 7.5, 150 mM NaCl, 1 mM DTT, 5% glycerol, 0.5 mg/ml BSA, 1 mM trolox, 25 °C, nuclear extract diluted 1:10, 10 pN (λ DNA) or 4-5 pN (NCP)
# T2 sequence: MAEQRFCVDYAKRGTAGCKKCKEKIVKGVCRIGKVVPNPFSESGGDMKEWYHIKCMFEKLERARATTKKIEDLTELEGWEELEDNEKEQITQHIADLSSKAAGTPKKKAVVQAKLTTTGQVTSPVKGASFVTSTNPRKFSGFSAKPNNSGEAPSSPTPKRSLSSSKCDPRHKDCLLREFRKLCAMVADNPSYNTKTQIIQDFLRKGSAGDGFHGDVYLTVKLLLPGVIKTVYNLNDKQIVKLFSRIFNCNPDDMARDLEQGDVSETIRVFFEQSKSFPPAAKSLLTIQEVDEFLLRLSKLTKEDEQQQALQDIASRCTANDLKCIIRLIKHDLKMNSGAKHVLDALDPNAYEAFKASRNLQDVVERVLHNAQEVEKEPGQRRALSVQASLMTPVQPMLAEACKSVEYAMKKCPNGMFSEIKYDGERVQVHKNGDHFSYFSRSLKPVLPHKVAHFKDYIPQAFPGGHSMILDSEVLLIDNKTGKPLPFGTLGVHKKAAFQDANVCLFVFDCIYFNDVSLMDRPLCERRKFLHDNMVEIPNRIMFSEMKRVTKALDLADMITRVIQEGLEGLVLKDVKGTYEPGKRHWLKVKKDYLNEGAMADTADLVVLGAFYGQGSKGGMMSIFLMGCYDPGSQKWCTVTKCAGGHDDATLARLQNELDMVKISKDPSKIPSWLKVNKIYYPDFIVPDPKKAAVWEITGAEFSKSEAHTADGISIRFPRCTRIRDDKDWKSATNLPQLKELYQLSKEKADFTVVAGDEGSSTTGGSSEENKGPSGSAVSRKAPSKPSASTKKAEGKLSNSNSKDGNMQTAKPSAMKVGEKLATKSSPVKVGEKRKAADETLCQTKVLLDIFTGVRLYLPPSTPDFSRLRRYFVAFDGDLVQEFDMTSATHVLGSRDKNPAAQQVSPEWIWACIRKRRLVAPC
# XRCC1-YFP [7] = molecular target: XRCC1-YFP (UniProt P18887); experiment: single-molecule (SMADNE, optical tweezers); conditions: 20 mM HEPES pH 7.5, 150 mM NaCl, 1 mM DTT, 5% glycerol, 0.5 mg/ml BSA, 1 mM trolox, 25 °C, nuclear extract diluted 1:10, 10 pN (λ DNA) or 4-5 pN (NCP)
# Sequence of XRCC1-YFP (P18887 whole entry): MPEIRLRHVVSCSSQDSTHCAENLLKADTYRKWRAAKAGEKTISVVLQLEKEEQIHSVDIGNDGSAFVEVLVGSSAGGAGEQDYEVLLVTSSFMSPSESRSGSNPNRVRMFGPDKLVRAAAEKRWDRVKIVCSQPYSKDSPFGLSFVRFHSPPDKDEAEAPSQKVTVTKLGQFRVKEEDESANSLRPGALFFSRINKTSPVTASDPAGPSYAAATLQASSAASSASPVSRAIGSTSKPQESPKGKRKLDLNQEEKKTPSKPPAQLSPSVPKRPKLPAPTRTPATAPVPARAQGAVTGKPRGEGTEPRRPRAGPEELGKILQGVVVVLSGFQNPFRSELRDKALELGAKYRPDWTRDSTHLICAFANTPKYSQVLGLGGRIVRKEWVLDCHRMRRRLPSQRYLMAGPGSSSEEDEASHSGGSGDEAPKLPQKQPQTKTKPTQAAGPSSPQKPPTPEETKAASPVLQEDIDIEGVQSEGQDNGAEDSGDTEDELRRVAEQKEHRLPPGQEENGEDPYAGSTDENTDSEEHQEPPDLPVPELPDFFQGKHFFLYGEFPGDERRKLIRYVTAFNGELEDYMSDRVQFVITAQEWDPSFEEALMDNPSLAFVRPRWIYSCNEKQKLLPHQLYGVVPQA
# [8] = molecular target: Cy3-labeled human histone nucleosome core particle reconstituted on the Widom 601 sequence (human); experiment: single-molecule fluorescence imaging on a tethered nucleosome (SMADNE, LUMICKS C-trap); as a3 but 601 NCP with one non-ligatable nick (3'OH and 5'OH) at SHL -4.5, 5 pN tension
# [9] = molecular target: Cy3-labeled human histone nucleosome core particle reconstituted on the Widom 601 sequence (human); experiment: single-molecule fluorescence imaging on a tethered nucleosome (SMADNE, LUMICKS C-trap); as a3 but 601 NCP with one non-ligatable nick (3'OH and 5'OH) at SHL -2.5, 5 pN tension
# [10] = molecular target: Cy3-labeled human histone nucleosome core particle reconstituted on the Widom 601 sequence (human); experiment: single-molecule fluorescence imaging on a tethered nucleosome (SMADNE, LUMICKS C-trap); as a3 but 601 NCP with one non-ligatable nick (3'OH and 5'OH) at SHL 0, 5 pN tension
# LIG3α K421A = experiment: single-molecule (SMADNE, optical tweezers); conditions: nicks with 3'OH and 5'P; 20 mM HEPES pH 7.5, 150 mM NaCl, 1 mM DTT, 5% glycerol, 0.5 mg/ml BSA, 1 mM trolox, 25 °C; nuclear extract diluted 1:10; 10 pN (λ DNA) or 4-5 pN (NCP)
# LIG3α ΔZnF, P49916-3 = system: T3, LIG3α ΔZnF, P49916-3; experiment: single-molecule (SMADNE, optical tweezers); conditions: nicks with 3'OH and 5'P; 20 mM HEPES pH 7.5, 150 mM NaCl, 1 mM DTT, 5% glycerol, 0.5 mg/ml BSA, 1 mM trolox, 25 °C; nuclear extract diluted 1:10; 10 pN (λ DNA) or 4-5 pN (NCP)
# T3 sequence: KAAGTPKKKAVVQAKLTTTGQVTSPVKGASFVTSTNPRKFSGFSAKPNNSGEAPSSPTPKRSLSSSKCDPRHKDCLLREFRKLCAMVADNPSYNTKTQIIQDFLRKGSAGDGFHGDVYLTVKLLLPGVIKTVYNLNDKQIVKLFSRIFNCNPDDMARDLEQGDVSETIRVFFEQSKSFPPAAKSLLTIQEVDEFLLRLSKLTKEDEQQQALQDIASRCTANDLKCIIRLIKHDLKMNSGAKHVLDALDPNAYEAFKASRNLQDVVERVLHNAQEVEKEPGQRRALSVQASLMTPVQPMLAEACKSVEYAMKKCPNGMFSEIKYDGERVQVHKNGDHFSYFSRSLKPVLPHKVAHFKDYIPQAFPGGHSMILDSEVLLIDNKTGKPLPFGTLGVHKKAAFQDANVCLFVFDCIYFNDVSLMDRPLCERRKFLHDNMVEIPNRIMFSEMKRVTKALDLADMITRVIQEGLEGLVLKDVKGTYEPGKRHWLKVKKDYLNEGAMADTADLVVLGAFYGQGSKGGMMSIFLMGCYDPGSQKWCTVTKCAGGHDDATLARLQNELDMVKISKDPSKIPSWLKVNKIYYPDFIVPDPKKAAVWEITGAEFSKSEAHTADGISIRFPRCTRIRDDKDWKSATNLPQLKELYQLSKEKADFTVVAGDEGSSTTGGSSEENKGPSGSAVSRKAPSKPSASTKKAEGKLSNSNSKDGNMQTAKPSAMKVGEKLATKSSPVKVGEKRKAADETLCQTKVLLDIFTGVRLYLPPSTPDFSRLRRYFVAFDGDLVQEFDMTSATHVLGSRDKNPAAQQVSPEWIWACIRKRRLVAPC
# XRCC1-YFP [11] = molecular target: XRCC1-YFP (UniProt P18887); experiment: single-molecule (SMADNE, optical tweezers); conditions: nicks with 3'OH and 5'P; 20 mM HEPES pH 7.5, 150 mM NaCl, 1 mM DTT, 5% glycerol, 0.5 mg/ml BSA, 1 mM trolox, 25 °C; nuclear extract diluted 1:10; 10 pN (λ DNA) or 4-5 pN (NCP)
# [12] = 5'-phosphates removed (5'OH at nicks)
# Sequence of C-terminal YFP tagged XRCC1 (X-ray cross complementing protein 1) (P18887 whole entry): as the sequence (P18887 whole entry) above
substance,measurement,setting,value
C-terminal YFP tagged XRCC1 (X-ray cross complementing protein 1) (from UniProt P18887 1-633) (natural protein),percent of binding events colocalized,[1],9.7%
same,average lifetime of both proteins together on the DNA,[2],0.7 s
same,percent of binding events colocalized,[2],17.1%
same,percent of binding events colocalized,[3],7.6%
same,percent of binding events colocalized,Halo 635-ΔZnF LIG3α,16.3%
same,Kd,[4],0.6 nM
CAACTGAGACCATGTACCCAGTTCGAATCGGATGTATATATCTGACACGTGCCTGGAGACTAGGGAGTAATCCCCTTGGCGGTTAAAACGCGGGGGACAGCGCGTACGTGCGTTTAAGCGGTGCTAGAGCTGTCTACGACCAATTGAGCGGCCTCGGCACCGGGATTCTCGATAACTCAGCAATAGTGGGTCTCA / ACCATGAGACCCACTATTGCTGAGTTATCGAGAATCCCGGTGCCGAGGCCGCTCAATTGGTCGTAGACAGCTCTAGCACCGCTTAAACGCACGTACGCGCTGTCCCCCGCGTTTTAACCGCCAAGGGGATTACTCCCTAGTCTCCAGGCACGTGTCAGATATATACATCCGATTCGAACTGGGTACATGGTCTCA [undamaged 601 NCP],Kd,[5]; 5'-phosphate on both strands,1.1 nM
same,Kd,[6]; 5'-phosphate on both strands,0.03 nM
same,Kd,XRCC1-YFP [7]; 5'-phosphate on both strands,0.6 nM
"CIP-treated nicked λ DNA, non-ligatable nicks",Kd,[6]; [12],1.64 nM
same,Kd,XRCC1-YFP [7]; [12],17 nM
"N-terminal tagged Halo635 LIG3α (DNA Ligase 3α, nuclear, wild type) (enzyme)",lifetime (Tau),[8],17.3 s
same,lifetime (Tau),[9],12.2 s
same,Kd,[4],0.03 nM
same,lifetime,[4],23.6 s
same,lifetime (Tau),[4],23.7 s
same,lifetime (Tau),[10],10.2 s
"nicked λ DNA (Nt.BspQI), ligatable nicks",Kd,[5]; nicks with 3'OH and 5'P,3.2 nM
same,Kd,LIG3α K421A,0.4 nM
same,Kd,[6]; nicks with 3'OH and 5'P,0.1 nM
same,Kd,XRCC1-YFP [7]; nicks with 3'OH and 5'P,1.5 nM
same,Kd,"LIG3α ΔZnF, P49916-3",0.09 nM
same,Kd,XRCC1-YFP [11],4 nM
"single non-ligatable nick, no NCP",Kd,[6]; non-ligatable nick,2.5 nM
